The record followed here is publication PMC6538622.

The target in test [1] is Acinetobacter baumannii RNase E N-terminal catalytic domain (Acinetobacter baumannii). As to the kind of experiment: SEC. A general note: SEC sorts molecules by how far they enter the pores of the column.
The target is the same in test [2]. Briefly: SEC-SAXS; 5-10 mg/ml protein in 10 mM DTT, 10 mM MgCl2, 0.5 M NaCl, 20 mM Tris pH 8; KW403-4F size-exclusion column, B21 beamline (Diamond Light Source); molecular mass from I(0).
For test [3], the target named is Francisella tularensis RNase E N-terminal catalytic domain (Francisella tularensis) (UniProt Q5NFK7). Briefly: SEC.
The target is the same in test [4]. Briefly: SEC-SAXS.
Test [5] addresses Yersinia pestis RNase E N-terminal catalytic domain (Yersinia pestis). As to the kind of experiment: SEC.
The target is the same in test [6]. As to the kind of experiment: SEC-SAXS.

For “Acinetobacter baumannii RNase E N-terminal catalytic domain (domain or fragment)”, the stoichiometry N in test [1] and in test [2] was 4 each time.
With “Francisella tularensis RNase E N-terminal catalytic domain (from UniProt Q5NFK7 1-543) (domain or fragment)”, the stoichiometry N in test [3] and in test [4] was 4 in each case.
Regarding “Yersinia pestis RNase E N-terminal catalytic domain (from UniProt A0AAX2HZU4 1-529) (domain or fragment)”, the stoichiometry N in test [5] and in test [6] was 4 each time.

By stoichiometry N is commonly meant the number of molecules, sites or subunits per partner or assembly.
